The series in a line: label from the status in PepcDB records.
Take “MTTTSSINERQVLKHLQAQLPDCLLLDRFHLKRRLQQVGAMLEQGKPVDKLMTELATKVQTSLQRRQLRQEQLPKPEYPAELPVSARKDEIAQAIAKHQVVIVSGETGSGKTTQLPKICLELGRGVAGLIGHTQPRRIAARSVASRIAQELKSPLGEAVGYKVRFNDRLSETTYIKLMTDGILLAETQGDRFLNAYDTIIIDEAHERSLNIDFLLGYLKQLLPRRPDLKVIVTSATIDAERFSRHFNGAPVIEVSGRTYPVEIRYRPLGSRRMVVAPPAPVAAPVPVVAQKEEAPQEDIIDIGIKRKAGNIDPSIRKWLEDDNDVEVLGQDIMGIQRKPRAEAKWLEEDDAEEAMEEAILDSVEQLSRLGGGDILVFLPGEREIRETADYLNKHLRHVEILPLFARLSIEDQQKVFRSSGGRRVVLATNVAETSLTVPGIKYVIDTGLARVNRYSARAKVEQLQVEKISQAAARQRAGRCGRVSNGICIRLYDEADFNHRPEFTDPEILRSSLAAVILRMAALKLGNVQDFPFIEAPSSRYIADGYQLLQELGAVDAEQNITDTGRQLARLPLDPRVSRMILEGKKQGCVREILIIASALAIQDPRERPMDKREAADQAHAKFNVEHSDFLGFIKLWEWYEDALKTKKSNKDLLNKCHSNFLSFLRLKEWRELYQQLREIAEELELKLNEQPASYEQVHRALLAGLLGNIGFKDGEADNYLGARGIRFHIAPGSTLKKARPKWVMAAELMETTKLYARCVARIEPDWIEPLARGLTQSHYSDPRWDRKAAQVVAWERVSLYGLTVVPRRRVHYGPINPQESREIFIREALANMEFDTRAPFFAANRKLIAEIEELEHKARRQDVLVDEHTLFAFYDAIIPAGIVNGAGFEKWRQEAERETPRLLYLTRDHLMRHGAAGVTEVQFPESLELDGVKLPLKYRFEPGHPLDGVTATVPLALLNQLNPVEAEWLVPGMIREKVTALIKALPKTLRRVCVPVPDFVTGFLETATRKDGALLPALASYIQQRTGLKLSASEWQADALDAHLYMNFRVVDEKNRELGSGRDWHALKAQLGQAAQLTFRSNSPGIEKAGLKQWDFGDLPPTLSFSRDGRQLTGYPALEDNGDSVAIKLFDTELAARQSHRAGVRRLMRFELKEQMKQLEKGLPGFNQYALQLRSIMSPEELREDMLVAISDRAFIGEDELPRNSQDFMALKARARTRLPAVVEGAGRLATAIATEYTQLTQKLNAAPASLSRVKKELEGQLARLLPKRFFSATPWDTLQHLPRYIKAMRLRLEKYPGAIERDTRSGQAVQQIWERWESHVQGLRKANQEVPPAVLDYRWLIEELRVSLFAQELKTPFPVSVKRLDKAWEDMVRA”: the protein production result is recorded as “failed”.

As to “SLGSLPPAAMESMESLRLKDKNEPVQNLPIQKSIDDVDSKLKGIGKPRKFSKFSLYKQLHRHHLHDADSISSIDSTSSYFNHYRSHHNLIHGLKPHFKLFHPSS”, the protein production result is reported as “failed”.

In the case of “MASNMDREMILADFQACTGIENIDEAITLLEQNNWDLVAAINGVIPQENGILQSEYGGETIPGPAFNPASHPASAPTSSSSSAFRPVMPSRQIVERQPRMLDFRVEYRDRNVDVVLEDTCTVGEIKQILENELQIPVSKMLLKGWKTGDVEDSTVLKSLHLPKNNSLYVLTPDLPPPSSSSHAGALQESLNQNFMLIITHREVQREYNLNFSGSSTIQEVKRNVYDLTSIPVRHQLWEGWPTSATDDSMCLAESGLSYPCHRLTVGRRSSPAQTREQSEEQITDVHMVSDSDGDDFEDATEFGVDDGEVFGMASSALRKSPMMPENAENEGDALLQFTAEFSSRYGDCHPVFFIGSLEAAFQEAFYVKARDRKLLAIYLHHDESVLTNVFCSQMLCAESIVSYLSQNFITWAWDLTKDSNRARFLTMCNRHFGSVVAQTIRTQKTDQFPLFLIIMGKRSSNEVLNVIQGNTTVDELMMRLMAAMEIFTAQQQEDIKDEDEREARENVKREQDEAYRLSLEADRAKREAHEREMAEQFRLEQIRKEQEEEREAIRLSLEQALPPEPKEENAEPVSKLRIRTPSGEFLERRFLASNKLQIVFDFVASKGFPWDEYKLLSTFPRRDVTQLDPNKSLLEVKLFPQETLFLEAKE”, the protein production entry was “not failed”.

On to PKQRCRAPACDHFGNAKCNGYCNECFQFKQMYG, for which the protein production result was “not failed”.

These data come from a protein production outcome set (Wang et al. 2014).
